The series addresses RelA homodimer (UniProt Q04206). The series is described as follows: BLI. To be noted: EMSA: 10 mM Tris-HCl pH 7.5, 50 mM NaCl, 10% glycerol, 1% NP-40, 1 mM EDTA, 0.1 mg/mL salmon sperm DNA, room temp; BLI: 25 mM Tris-HCl pH 7.5, 150 mM NaCl ….

Chain of RelA homodimer (Q04206 whole entry): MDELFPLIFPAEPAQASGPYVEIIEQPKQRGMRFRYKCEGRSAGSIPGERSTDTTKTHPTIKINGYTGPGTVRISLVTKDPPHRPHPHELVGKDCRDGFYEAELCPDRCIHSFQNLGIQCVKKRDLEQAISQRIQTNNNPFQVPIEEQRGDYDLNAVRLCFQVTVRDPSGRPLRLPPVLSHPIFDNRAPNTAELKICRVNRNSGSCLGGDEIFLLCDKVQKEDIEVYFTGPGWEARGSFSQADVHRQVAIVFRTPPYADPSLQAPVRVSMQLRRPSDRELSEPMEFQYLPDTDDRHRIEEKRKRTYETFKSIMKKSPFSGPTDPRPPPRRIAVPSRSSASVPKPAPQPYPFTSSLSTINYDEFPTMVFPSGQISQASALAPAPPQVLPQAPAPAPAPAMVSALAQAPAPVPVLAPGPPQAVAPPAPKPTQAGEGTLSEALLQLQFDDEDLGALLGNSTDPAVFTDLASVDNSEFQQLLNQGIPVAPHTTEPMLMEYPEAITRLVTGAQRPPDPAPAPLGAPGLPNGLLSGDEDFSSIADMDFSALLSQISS

For STX11 kB (weak), the Kd was 250 nM. Substance IFN-b1 kB (strong) registered a Kd of 27 nM.

Values taken from PMC12507517.
